This is an account of results in patent US20110085986A1, “Diagnosis and treatment of epithelial cancers using labeled/conjugated progastrin peptides” (priority 2009, published 2011).

Ends that are not written are not given here. Peptide text beside a SMILES is read from it. * marks the point of attachment. FITC = O=C1OC2(c3ccc(O)cc3Oc3cc(O)ccc32)c2ccc(NC(=S)*)cc21

The test system of one data set is colon cancer xenograft. Description: Homing of FITC-PG26 to Anx A2 over-expressing tumors growing as xenografts in nude mice. In kind it is in vivo. How it is done: FIGS. 8A-E depict 10-100 μg of FITC-PG-26 peptide was dissolved in 100 μl of saline was used to detect the tumor in nude mice. The images were captured in live mice after 1-60 minutes, with injection on the tumor site (FIG. 8A) or through tail vein (FIGS. 8B-D). In FIG. 8B, the localization of tumor cells are marked with arrows detected after 5 minutes post tail vein injection.
For data presented in FIGS. 2-4, 5A-5B and 6A-6E, the full length 80 amino acid rhPG was used (SEQ ID NO: 2), which was visualized by staining with fluorescently labeled primary or secondary antibodies. […] Strong peri-nuclear co-localization of FITC-PG26 with Anx A2 was measured within 15 min of labeling in a chase experiment (FIG. 7). […]
The 26 amino acid PG peptide (PG26), labeled with FITC at the N-terminal end, specifically homed to the site of a colon cancer xenograft, growing either under the skin or growing as a metastatic lesion in the liver. […] Even small tumor lesions were detected with FITC-PG26 after […] of tail vein injection (FIG. 8B). FITC-control peptide was not detected after 30 min of injecting into the tail vein (FIG. 8E), confirming the specificity of FITC-PG26 peptide for homing to tumors in situ.

For data set [1], the target named is T1, Anx A2 (Rattus norvegicus, UniProt Q07936).
T1 construct: the 36 kDa Anx A2 protein, prepared from cancer cells/tumor membranes; endogenous in cells
T1 sequence (Q07936 whole entry): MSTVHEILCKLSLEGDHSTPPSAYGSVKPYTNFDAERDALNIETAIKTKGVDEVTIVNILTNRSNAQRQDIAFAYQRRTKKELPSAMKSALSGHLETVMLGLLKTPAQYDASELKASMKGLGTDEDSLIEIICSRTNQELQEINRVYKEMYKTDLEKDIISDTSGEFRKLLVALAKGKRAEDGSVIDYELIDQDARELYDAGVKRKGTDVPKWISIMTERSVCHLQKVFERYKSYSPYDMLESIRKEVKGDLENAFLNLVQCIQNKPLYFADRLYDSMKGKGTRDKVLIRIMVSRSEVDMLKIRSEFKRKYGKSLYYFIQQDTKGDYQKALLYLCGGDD
To be noted: Anx A2 prepared from cancer cells/tumor membranes; cited from earlier work.

A further data set relates to CCK1R. Kind of data set: Affinity of amidated gastrins for CCK1R. In kind it is binding.
Data set [2] is described as follows: Biological activity of PG26. The source says: For data presented in FIGS. 2-4, 5A-5B and 6A-6E, the full length 80 amino acid rhPG was used (SEQ ID NO: 2), which was visualized by staining with fluorescently labeled primary or secondary antibodies. However, in order to examine the feasibility of using PG peptides for diagnostic and treatment purposes, synthesized FITC labeled PG fragments (PG26, SEQ ID NO 1: […]) conjugated with either radio- or fluorescently labeled imaging reagents (for diagnostic purposes), or with cytotoxic payloads (for therapeutic purposes) was studied. […] Endocytotic internalization of FITC-PG26 in PG responsive immortalized kidney embryonic cell line, HEK-293, was examined. Strong peri-nuclear co-localization of FITC-PG26 with Anx A2 was measured within 15 min of labeling in a chase experiment (FIG. 7). […] The homing potential of FITC-PG26 to Anx A2 over-expressing tumors, growing as xenografts in nude mice, was confirmed, as shown in FIGS. 8A-8E.

Data set [3] addresses Anx A2 (Homo sapiens, UniProt P07355). Kind of data set: In vitro binding assay and co-IP of rhPG and ANX-II. Conditions: in vitro binding assay, FIG. 3. From the text:
Lane 1 is rhPG; lane 2 is ANX-II; lanes 3 and 4 are rhPG and ANX-II; lane 3 is IP with anti-PG (aPG); lane 4 is IP with anti-ANX-II (aANX-II). All the samples were processed for WB with both aPG and ANX-II.
(§1) Adenoma and adenocarcinomas tissue sections (from ovarian and colorectal cancers of patients) were positive for Anx A2 expression, while normal tissues were negative (FIGS. 4, 5A-5B). Immortalized intestinal epithelial cell line (IEC-18) are used, which responds to the growth and anti-apoptotic effects of PG peptides (9), for further investigating the biology of interaction of PG with Anx A2. Intra-cellular translocation of labeled PG was examined in IEC-18 cells. […] Using fluoroscense assisted sorting with labeled anti-Anx A2-Abs, presence of extracellular Anx A2 was confirmed on IEC-18 cells (FIG. 6B).

The test system of data set [4] is immortalized cells (IEC, HEK-293) and cancer cell lines (from ovaries/colons). Description: Co-localization of PG with Anx A2 in PG-responsive cells. In kind it is cell-based. Conditions: cells responsive to growth effects of PG peptides.
Text: as §1

The next data set has as its system IEC-18 cells. Description: Intra-cellular translocation of PG in IEC-18 cells (confocal microscopy, pull down/WB, Anx A2 siRNA). In kind it is cell-based. How it is done: FIGS. 6A-6E depict the binding of PG with ANXII. FIG. 6A depicts immuno-colocalization of ANXII/PG in IEC cells, incubated with PG. E. IEC-18 cells were seeded, on sterile glass cover slips. Following overnight culture cells were incubated with PG (1 nM) from 0-15 min, and washed 3× with chilled PBS. Cells were fixed in acetone:methanol for 20 min at −20° C., and incubated with anti-PG or anti-ANXII-Abs, followed by fluorescence labeling with second Abs. Images were captured by confocal microscopy at 60×. Insets represent computer assisted enlarged images. Arrows depict co-localization on membranes. […] Cells in culture were detached with liberase to make single cell suspensions and incubated with either non-immune IgG or anti-ANXII-Ab for 2 hours at room temperature, washed with chilled PBS followed by incubation with FITC-second-Ab for 1 hours at room temperature. FIG. 6C depicts IEC-18 cells in culture treated with PG for 0-15 min except for Lamp1 (treated for 0-30 min) at 37° C. and washed with chilled PBS 3×. Cells were processed for pull down with anti-PG-Ab and processed for WB analysis for either EEA1/ANXII/PG/Lamp1. […] The inset portion of the co-localization staining is also shown.
as §1
Since Anx A2 lacks transmembrane domains, mechanisms mediating translocation of Anx A2/PG from outer cell membranes towards intracellular compartments remains unknown. Anx A2 also binds transmembrane proteins such as CD44, which are over-expressed in cancer cells. Thus the tumor specific expression of CD44-like transmembrane proteins offers an additional level of cancer-specific regulation, allowing intra-cellular translocation of PG-Anx A2 only in tumor cells. […] Co-localization of PG/Anx A2 with the early endosomal marker (EEA1) was examined. Cellular lysates from IEC-18 cells, treated with PG for 0, 5 and 15 min, were pulled down with anti-PG Abs and processed for WB analysis for EEA1, Lamp1 (lysomal marker), Anx A2 and PG (FIG. 6C). Possible in situ co-localization of EEA1 with PG was also examined after 15 min of PG stimulation by confocal microscopy (FIG. 6D). […]

Anx A2 (Homo sapiens, UniProt P07355), sequence (P07355 whole entry, species assumed): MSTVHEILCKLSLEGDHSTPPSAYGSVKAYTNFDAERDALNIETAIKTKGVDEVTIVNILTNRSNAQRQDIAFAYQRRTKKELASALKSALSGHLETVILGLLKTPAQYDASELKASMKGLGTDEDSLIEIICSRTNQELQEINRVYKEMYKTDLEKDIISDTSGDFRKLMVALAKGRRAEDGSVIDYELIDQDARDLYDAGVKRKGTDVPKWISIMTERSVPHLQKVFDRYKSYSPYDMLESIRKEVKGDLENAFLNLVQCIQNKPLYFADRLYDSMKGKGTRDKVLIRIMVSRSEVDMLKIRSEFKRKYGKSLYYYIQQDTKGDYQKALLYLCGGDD

Take `CSCC[C@H](NC(=O)[C@H](Cc1c[nH]c2ccccc12)NC(=O)CNC(=O)[C@H](Cc1ccc(O)cc1)NC(=O)[C@H](C)NC(=O)[C@H](CCC(=O)O)NC(=O)[C@H](CCC(=O)O)NC(=O)[C@H](CCC(=O)O)NC(=O)[C@H](CCC(=O)O)NC(=O)[C@H](CCC(=O)O)NC(=O)[C@H](CC(C)C)NC(=O)[C@H](Cc1c[nH]c2ccccc12)NC(=O)[C@@H]1CCCN1C(=O)CNC(=O)[C@H](CCC(N)=O)NC(=S)Nc1ccc2c(c1)C(=O)OC21c2ccc(O)cc2Oc2cc(O)ccc21)C(=O)N[C@@H](CC(=O)O)C(=O)N[C@@H](Cc1ccccc1)C(=O)NCC(=O)N[C@@H](CCCNC(=N)N)C(=O)N[C@@H](CCCNC(=N)N)C(=O)N[C@@H](CO)C(=O)N[C@@H](C)C(=O)N[C@@H](CCC(=O)O)C(=O)N[C@@H](CC(=O)O)C(=O)N[C@@H](CCC(=O)O)C(=O)N[C@@H](CC(N)=O)C(=O)O` [FITC-PG26] ({FITC}-QGPWLEEEEEAYGWMDFGRRSAEDEN-OH; N-terminus and C-terminus assumed): in the data set on colon cancer xenograft (i.v. injection through the tail vein, FIG. 8C), the “retention in the tumor” value is around 60 min. Also, the “retention of fluorescence in tumor” value with colon cancer xenograft (injected intra-tumorally, FIG. 8A) was above 20 min.
On to “CCK8: cholecystokinin CCK8 [reference compound]”, for which the “Relative binding affinity (RBA) for the 36 kDa Anx A2 protein, rank order” value (“Relative binding affinity (RBA)” below) in the data set with Anx A2 [1] is on record as “no affinity”.
In the case of G17: amidated gastrin, the “affinity for CCK1R” value with CCK1R is “much higher affinity”.
Consider “G34: amidated gastrin (QLGPQGPPHLVADPSKKQGPWLEEEEEAYGWMDF-NH2; ends and bridges not checked; UniProt P01350 59-92, looked up)”, for which the “affinity for CCK1R” value in the data set with CCK1R was “much higher affinity”.
For “QGPWLEEEEEAYGWMDFGRRSAEDEN (homing progastrin peptide specifically binding annexin2) [PG26, 26 amino acid PG peptide fragment]”, the biological activity entry in data set [2] is recorded as “biologically active”.

B1: PG: full length 80 amino acid rhPG (SEQ ID NO: 2) (protein)
chain: SWKPRSQQPDAPLGTGANRDLELPWLEQQGPASHHRRQLGPQGPPHLVADPSKKQGPWLEEEEEAYGWMDFGRRSAEDEN
modifications: recombinant human progastrin
Regarding B1, in the data set with Anx A2 [3], the “binding of Anx A2 and rhPG” value was “Direct binding”. The “co-localization of PG with Anx A2” value in data set [4] is recorded as “strong co-localization”. For the same molecule, the PG binding/uptake entry in the data set with IEC-18 cells (IEC18 cells treated with specific siRNA against Anx A2, FIG. 6E) is reported as “completely negative”. The “localization of PG/Anx A2 after addition of PG” value in the data set with IEC-18 cells (IEC-18 cells, FIG. 6A) is given as “initial co-localization of PG with Anx A2 on the cellular membranes, followed by rapid intracellular localization”. In addition, the “time to translocation of Anx A2 and PG into early endosomes” value in the data set on IEC-18 cells (after PG stimulation, IEC-18 cells) is recorded as at most 5 min. In addition, the “increase in co-IP of Lamp1 with PG” value in the data set with IEC-18 cells (later time points, FIG. 6C) is listed as around 5 fold. Also, in the data set with Anx A2 [1], the “Relative binding affinity (RBA)” value is given as “PG>G-Gly>G17”.

B2: G-Gly: glycine-extended gastrin, processing intermediate of progastrin (peptide)
peptide: B1 chain
As for B2, in the data set with Anx A2 [1], the “Relative binding affinity (RBA)” value is recorded as “PG>G-Gly>G17”.
